In US6875581:

Target: calcineurin (recombinant or partly purified, phosphoserine phosphatase assay)
Assay: cell-based or functional assay

Percentage of FK506 inhibitable RII-phosphopeptide activity after 20 min compared with the activity at 0 min; constant activity (1.67 U) [%]	Percentage of FK506 inhibitable RII-phosphopeptide activity after 20 min compared with the activity at 0 min; constant protein (3 ug) [%]	protection of calcineurin after calcium induced redox inactivation [%]	Substance
32	42		recombinant human CuZnSOD mutation D90A (from UniProt P00441 2-154) (enzyme)
8	22		recombinant human CuZnSOD mutation A4V (from UniProt P00441 2-154) (enzyme)
57	57	50 to 100	purified human erythrocyte CuZnSOD (Sigma Aldrich) (from UniProt P00441 2-154) (enzyme)
21	16		recombinant human CuZnSOD mutation G93A (from UniProt P00441 2-154) (enzyme)
56	70	50 to 100	recombinant human wild-type CuZnSOD (from UniProt P00441 2-154) (enzyme)
